The values that follow come from article PMC11574045, “A cofactor-induced repressive type of transcription factor condensation can be induced by synthetic peptides to suppress tumorigenesis” (The EMBO Journal, 2024).

The test system of this test is HEK293FT cells transfected with TF library. Put plainly: Screening of TF condensates based on fluorescent puncta. The format is cell-based. The note with it: Figure 1B numerical data; TF library screen, one value per transcriptional factor. A digest of the protocol: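 TF plasmids (final 1.6 μg/ml) reverse-transfected with PEI (4.8 μg/ml) into HEK293FT cells; after 60 h, cells cultured ±glucose for 12 h, fixed in 4% PFA and immunostained for Flag or GAL4 tags with Alexa 488 secondaries. Puncta scored by automated imaging of 50 random fields per well.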

B1: ZSCAN10 (protein, UniProt Q96SZ4 1-780, looked up)
Zinc finger and SCAN …: MLGESVPAAVEQEQLGEVKLEEEEAVSPEDPRRPESRLRPEVAHQLFRCFQYQEDMGPRASLSRLRELCGHWLRPALHTKKQILELLVLEQFLSVLPPHLLGRLQGQPLRDGEEVVLLLEGIHREPSHAGPLDFSCNAGKSCPRADVTLEEKGCASQVPSHSPKKELPAEEPSVLGPSDEPPRPQPRAAQPAEPGQWRLPPSSKQPLSPGPQKTFQALQESSPQGPSPWPEESSRDQELAAVLECLTFEDVPENKAWPAHPLGFGSRTPDKEEFKQEEPKGAAWPTPILAESQADSPGVPGEPCAQSLGRGAAASGPGEDGSLLGSSEILEVKVAEGVPEPNPELQFICADCGVSFPQLSRLKAHQLRSHPAGRSFLCLCCGKSFGRSSILKLHMRTHTDERPHACHLCGHRFRQSSHLSKHLLTHSSEPAFLCAECGRGFQRRASLVQHLLAHAQDQKPPCAPESKAEAPPLTDVLCSHCGQSFQRRSSLKRHLRIHARDKDRRSSEGSGSRRRDSDRRPFVCSDCGKAFRRSEHLVAHRRVHTGERPFSCQACGRSFTQSSQLVSHQRVHTGEKPYACPQCGKRFVRRASLARHLLTHGGPRPHHCTQCGKSFGQTQDLARHQRSHTGEKPCRCSECGEGFSQSAHLARHQRIHTGEKPHACDTCGHRFRNSSNLARHRRSHTGERPYSCQTCGRSFRRNAHLRRHLATHAEPGQEQAEPPQECVECGKSFSRSCNLLRHLLVHTGARPYSCTQCGRSFSRNSHLLRHLRTHARETLY
As for B1, the “Z score of condensed fraction” value is listed as -0.1901.

B2: ZPF91 (protein, UniProt Q96JP5 2-570, looked up)
E3 ubiquitin-protein ligase …: PGETEEPRPPEQQDQEGGEAAKAAPEEPQQRPPEAVAAAPAGTTSSRVLRGGRDRGRAAAAAAAAAVSRRRKAEYPRRRRSSPSARPPDVPGQQPQAAKSPSPVQGKKSPRLLCIEKVTTDKDPKEEKEEEDDSALPQEVSIAASRPSRGWRSSRTSVSRHRDTENTRSSRSKTGSLQLICKSEPNTDQLDYDVGEEHQSPGGISSEEEEEEEEEMLISEEEIPFKDDPRDETYKPHLERETPKPRRKSGKVKEEKEKKEIKVEVEVEVKEEENEIREDEEPPRKRGRRRKDDKSPRLPKRRKKPPIQYVRCEMEGCGTVLAHPRYLQHHIKYQHLLKKKYVCPHPSCGRLFRLQKQLLRHAKHHTDQRDYICEYCARAFKSSHNLAVHRMIHTGEKPLQCEICGFTCRQKASLNWHMKKHDADSFYQFSCNICGKKFEKKDSVVAHKAKSHPEVLIAEALAANAGALITSTDILGTNPESLTQPSDGQGLPLLPEPLGNSTSGECLLLEAEGMSKSYCSGTERVSLMADGKIFVGSGSSGGTEGLVMNSDILGATTEVLIEDSDSAGP
As for B2, the “Z score of condensed fraction” value is -0.03316.

B3: ZSCAN1 (protein, UniProt Q8NBB4 1-408, looked up)
Zinc finger and SCAN …: MLPRPKAPASPRRPQTPTPSEQDADPGPASPRDTEAQRLRFRQFQYHVASGPHLALGQLWTLCRQWLRPEARSKEQMLELLVLEQFLGALPSKMRTWVQSQGPRSCREAASLVEDLTQMCQQEVLVSLDSVEPQDWSFGEEEDGKSPRSQKEPSQASELILDAVAAAPALPEESEWLETTQLQQSLHTRAEAEAPRAPGLLGSRARLPLKPSIWDEPEDLLAGPSSDLRAEGTVISSPKGPSAQRISPRRRNRNTDQSGRHQPSLKHTKGGTQEAVAGISVVPRGPRGGRPFQCADCGMVFTWVTHFIEHQKTHREEGPFPCPECGKVFLHNSVLTEHGKIHLLEPPRKKAPRSKGPRESVPPRDGAQGPVAPRSPKRPFQCSVCGKAFPWMVHLIDHQKLHTAHGHM
Take B3: the “Z score of condensed fraction” value came to 1.179.

B4: ZNF800 (protein, UniProt Q2TB10 1-664, looked up)
Zinc finger protein 800: MPLRDKYCQTDHHHHGCCEPVYILEPGDPPLLQQPLQTSKSGIQQIIECFRSGTKQLKHILLKDVDTIFECKLCRSLFRGLPNLITHKKFYCPPSLQMDDNLPDVNDKQSQAINDLLEAIYPSVDKREYIIKLEPIETNQNAVFQYISRTDNPIEVTESSSTPEQTEVQIQETSTEQSKTVPVTDTEVETVEPPPVEIVTDEVAPTSDEQPQESQADLETSDNSDFGHQLICCLCRKEFNSRRGVRRHIRKVHKKKMEELKKYIETRKNPNQSSKGRSKNVLVPLSRSCPVCCKSFATKANVRRHFDEVHRGLRRDSITPDIATKPGQPLFLDSISPKKSFKTRKQKSSSKAEYNLTACKCLLCKRKYSSQIMLKRHMQIVHKITLSGTNSKREKGPNNTANSSEIKVKVEPADSVESSPPSITHSPQNELKGTNHSNEKKNTPAAQKNKVKQDSESPKSTSPSAAGGQQKTRKPKLSAGFDFKQLYCKLCKRQFTSKQNLTKHIELHTDGNNIYVKFYKCPLCTYETRRKRDVIRHITVVHKKSSRYLGKITASLEIRAIKKPIDFVLNKVAKRGPSRDEAKHSDSKHDGTSNSPSKKYEVADVGIEVKVTKNFSLHRCNKCGKAFAKKTYLEHHKKTHKANASNSPEGNKTKGRSTRSKALV
On to B4, for which the “Z score of condensed fraction” value is 3.058.

B5: ZNF770 (protein, UniProt Q6IQ21 1-691, looked up)
Zinc finger protein 770: MMAENNLKMLKIQQCVVANKLPRNRPYVCNICFKHFETPSKLARHYLIHTGQKPFECDVCHKTFRQLVHLERHQLTHSLPFKCSICQRHFKNLKTFVKHQQLHNETYQNNVKQVRRLLEAKQEKSMYGVYNTFTTEERWALHPCSKSDPMYSMKRRKNIHACTICGKMFPSQSKLDRHVLIHTGQRPFKCVLCTKSFRQSTHLKIHQLTHSEERPFQCCFCQKGFKIQSKLLKHKQIHTRNKAFRALLLKKRRTESRPLPNKLNANQGGFENGEIGESEENNPLDVHSIYIVPFQCPKCEKCFESEQILNEHSCFAARSGKIPSRFKRSYNYKTIVKKILAKLKRARSKKLDNFQSEKKVFKKSFLRNCDLISGEQSSEQTQRTFVGSLGKHGTYKTIGNRKKKTLTLPFSWQNMGKNLKGILTTENILSIDNSVNKKDLSICGSSGEEFFNNCEVLQCGFSVPRENIRTRHKICPCDKCEKVFPSISKLKRHYLIHTGQRPFGCNICGKSFRQSAHLKRHEQTHNEKSPYASLCQVEFGNFNNLSNHSGNNVNYNASQQCQAPGVQKYEVSESDQMSGVKAESQDFIPGSTGQPCLPNVLLESEQSNPFCSYSEHQEKNDVFLYRCSVCAKSFRSPSKLERHYLIHAGQKPFECSVCGKTFRQAPHWKRHQLTHFKERPQGKVVALDSVM
For the molecule B5, the “Z score of condensed fraction” value is recorded as -0.4682.

B6: ZNF791 (protein, UniProt Q3KP31 1-576, looked up)
Zinc finger protein 791: MDSVAFEDVSVSFSQEEWALLAPSQKKLYRDVMQETFKNLASIGEKWEDPNVEDQHKNQGRNLRSHTGERLCEGKEGSQCAENFSPNLSVTKKTAGVKPYECTICGKAFMRLSSLTRHMRSHTGYELFEKPYKCKECEKAFSYLKSFQRHERSHTGEKPYKCKQCGKTFIYHQPFQRHERTHIGEKPYECKQCGKALSCSSSLRVHERIHTGEKPYECKQCGKAFSCSSSIRVHERTHTGEKPYACKECGKAFISHTSVLTHMITHNGDRPYKCKECGKAFIFPSFLRVHERIHTGEKPYKCKQCGKAFRCSTSIQIHERIHTGEKPYKCKECGKSFSARPAFRVHVRVHTGEKPYKCKECGKAFSRISYFRIHERTHTGEKPYECKKCGKTFNYPLDLKIHKRNHTGEKPYECKECAKTFISLENFRRHMITHTGDGPYKCRDCGKVFIFPSALRTHERTHTGEKPYECKQCGKAFSCSSYIRIHKRTHTGEKPYECKECGKAFIYPTSFQGHMRMHTGEKPYKCKECGKAFSLHSSFQRHTRIHNYEKPLECKQCGKAFSVSTSLKKHMRMHNR
For the molecule B6, the “Z score of condensed fraction” value was -0.6142.

B7: CDX2 (protein, UniProt Q99626 1-313, looked up)
Homeobox protein CDX-2: MYVSYLLDKDVSMYPSSVRHSGGLNLAPQNFVSPPQYPDYGGYHVAAAAAAAANLDSAQSPGPSWPAAYGAPLREDWNGYAPGGAAAAANAVAHGLNGGSPAAAMGYSSPADYHPHHHPHHHPHHPAAAPSCASGLLQTLNPGPPGPAATAAAEQLSPGGQRRNLCEWMRKPAQQSLGSQVKTRTKDKYRVVYTDHQRLELEKEFHYSRYITIRRKAELAATLGLSERQVKIWFQNRRAKERKINKKKLQQQQQQQPPQPPPPPPQPPQPQPGPLRSVPEPLSPVSSLQASVPGSVPGVLGPTGGVLNPTVTQ
B7: the “Z score of condensed fraction” value is on record as -0.211.
